According to patent EP1986009A1:

Molecular target: Recombinant human RAGE/Fc chimera (R&D Systems cat. No. 1145-RG) (human)
Test: SPR (Biacore), 200 nM protein over immobilized RAGE/Fc, Req or late association response

Sequence of Recombinant human RAGE/Fc chimera (R&D Systems cat. No. 1145-RG) (human) (Q15109 23-344, change not shown, form in doubt): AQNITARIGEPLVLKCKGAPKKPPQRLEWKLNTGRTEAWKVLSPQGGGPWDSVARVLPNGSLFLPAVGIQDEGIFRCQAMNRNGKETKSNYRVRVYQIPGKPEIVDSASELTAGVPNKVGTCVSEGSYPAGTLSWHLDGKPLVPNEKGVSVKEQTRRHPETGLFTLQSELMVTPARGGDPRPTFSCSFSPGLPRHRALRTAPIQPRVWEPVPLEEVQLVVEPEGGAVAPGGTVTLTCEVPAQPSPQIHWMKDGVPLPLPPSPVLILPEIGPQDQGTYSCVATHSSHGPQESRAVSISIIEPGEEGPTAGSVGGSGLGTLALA

## Recombinant S100A9, expressed as the full-length sequence of native protein in E. coli (ligand)
  fold higher binding than the next group of RAGE binders (AnxII, S100A12, and S100A8/9): > 10 fold
